Tests used:
Test in all cases: MST; labelled JIP3/4 fragment (Blue-NHS dye) constant at 20 nM, KIF5B fragment titrated 120 pM to 4 uM (up to 38.2 uM when needed); 50 mM Tris pH 8.0, 200 mM NaCl, 10 mM MgCl2, 0.05% Tween 20; room temperature; Monolith NT.115, premium capillaries, MST-on 0.5-1.5 s; 1:1 Kd fit; three replicates; the paper calls its affinities relative measurements
[1] = target: JIP3-N^JIP4-RH1-lz3 chimera (JIP3 variant incorporating the N-terminus of JIP4) (not stated | mouse)
JIP4-N-RH1-lz3-G40H-R41C = JIP4-N-RH1-lz3-G40H-R41C (UniProt O60271)
[2] = target: JIP4-N^JIP3-RH1-lz3 chimera (JIP4 variant incorporating the N-terminus of JIP3) (mouse | not stated)

Sequence of KIF5B-CC3b-CC4-dt fragment (P33176 771-963): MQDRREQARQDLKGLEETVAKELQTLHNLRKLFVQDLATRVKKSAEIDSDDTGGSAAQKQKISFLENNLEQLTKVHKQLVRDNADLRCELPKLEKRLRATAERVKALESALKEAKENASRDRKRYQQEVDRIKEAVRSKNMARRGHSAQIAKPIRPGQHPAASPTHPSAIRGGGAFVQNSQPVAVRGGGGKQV
Sequence of JIP4-N-RH1-lz3-G40H-R41C (O60271 whole entry G40H/R41C): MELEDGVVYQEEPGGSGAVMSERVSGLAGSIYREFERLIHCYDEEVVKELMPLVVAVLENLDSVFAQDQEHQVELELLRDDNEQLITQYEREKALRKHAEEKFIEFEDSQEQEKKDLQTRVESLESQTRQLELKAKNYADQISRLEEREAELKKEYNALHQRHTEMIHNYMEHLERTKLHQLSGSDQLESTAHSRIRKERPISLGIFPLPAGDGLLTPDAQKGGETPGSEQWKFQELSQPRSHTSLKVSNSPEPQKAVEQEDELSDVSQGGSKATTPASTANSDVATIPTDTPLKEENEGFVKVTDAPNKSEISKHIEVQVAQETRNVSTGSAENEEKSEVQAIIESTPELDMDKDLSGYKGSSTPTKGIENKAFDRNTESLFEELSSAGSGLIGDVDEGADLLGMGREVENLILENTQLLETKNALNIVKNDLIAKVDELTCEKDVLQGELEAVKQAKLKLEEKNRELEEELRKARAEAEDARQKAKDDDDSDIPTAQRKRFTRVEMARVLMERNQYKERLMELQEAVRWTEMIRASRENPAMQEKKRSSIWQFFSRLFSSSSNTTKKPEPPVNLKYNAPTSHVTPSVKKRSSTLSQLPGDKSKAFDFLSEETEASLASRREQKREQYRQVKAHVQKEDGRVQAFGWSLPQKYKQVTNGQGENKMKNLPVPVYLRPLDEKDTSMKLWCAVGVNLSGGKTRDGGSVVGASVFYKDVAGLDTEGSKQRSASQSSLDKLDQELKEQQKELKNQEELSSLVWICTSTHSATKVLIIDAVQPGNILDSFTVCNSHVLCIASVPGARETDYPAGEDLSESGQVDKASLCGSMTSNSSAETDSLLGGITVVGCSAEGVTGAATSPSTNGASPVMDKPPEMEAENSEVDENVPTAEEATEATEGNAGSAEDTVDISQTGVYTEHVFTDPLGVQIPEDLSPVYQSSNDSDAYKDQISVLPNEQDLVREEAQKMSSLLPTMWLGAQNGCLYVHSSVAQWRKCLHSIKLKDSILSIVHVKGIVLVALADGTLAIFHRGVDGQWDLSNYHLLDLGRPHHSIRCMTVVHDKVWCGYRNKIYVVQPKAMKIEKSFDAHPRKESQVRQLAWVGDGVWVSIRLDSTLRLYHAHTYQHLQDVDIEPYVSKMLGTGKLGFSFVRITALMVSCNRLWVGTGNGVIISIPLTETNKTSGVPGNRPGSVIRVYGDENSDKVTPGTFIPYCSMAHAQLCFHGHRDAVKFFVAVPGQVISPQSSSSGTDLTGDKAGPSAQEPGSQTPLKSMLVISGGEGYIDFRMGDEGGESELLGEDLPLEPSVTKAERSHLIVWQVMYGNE

- Kd [1]: 29.6 nM
- Kd (JIP4-N-RH1-lz3-G40H-R41C): 132 nM
- Kd [2]: 246 nM
Substance: KIF5B-CC3b-CC4-dt fragment (from UniProt P33176 771-963) (domain or fragment)
